Measured values from patent publication US20260242478A1 (published 2026).

B1: Phage-666 (peptide, not shown: large carriers)
peptide: YCEGHSPEYMSHCF
notes: Clonal phage supernatant of the Peptide-87 library
B2: Phage-660 (peptide, not shown: large carriers)
peptide: YCSGHLPEYMEKCL
notes: as for B1
B3: Phage-658 (peptide, not shown: large carriers)
peptide: YCEGHTAEYLQKCL
notes: as for B1
B4: Phage-668 (peptide, not shown: large carriers)
peptide: YCDGHAQEFMSKCL
notes: as for B1
B5: Phage-659 (peptide, not shown: large carriers)
peptide: YCAGHSPEYMGKCM
notes: as for B1
B6: Phage-667 (peptide, not shown: large carriers)
peptide: YCEGHSMQHMAKCL
notes: as for B1
B7: Phage-661 (peptide, not shown: large carriers)
peptide: YCAGHLEIYMQKCL
notes: as for B1
B8: Phage-665 (peptide, not shown: large carriers)
peptide: YCDGHAEQYMEKCL
notes: as for B1
B9: Phage-664 (peptide, not shown: large carriers)
peptide: YCEGHAPEHMAKCL
notes: as for B1
B10: Phage-657 (peptide, not shown: large carriers)
peptide: YCAGHLPEHIGKCL
notes: as for B1
B11: Phage-663 (peptide, not shown: large carriers)
peptide: YCEGHSAEYMWKCL
notes: as for B1
B12: Phage-669 (peptide, not shown: large carriers)
peptide: YCAGHLPEYIDKCL
notes: as for B1
B13: Phage-662 (peptide, not shown: large carriers)
peptide: YCMGHLPQYMEKCL
notes: as for B1

Columns and labels:
[1] = target: T1, Anti-CD28 Fab (SEQ ID NOs: 696, 697); experiment: phage ELISA on plate-bound anti-CD28 Fab, wells pre-incubated with CD28 antigen as competitor
T1 construct: Biotinylated and captured on neutravidin coated plates in the phage ELISA
T1 sequence (VH, as listed by the source, chain 1 of 2): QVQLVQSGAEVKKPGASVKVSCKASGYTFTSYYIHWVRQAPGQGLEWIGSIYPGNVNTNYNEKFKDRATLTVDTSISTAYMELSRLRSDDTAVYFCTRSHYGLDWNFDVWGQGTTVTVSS
T1 sequence (VL, as listed by the source, chain 2 of 2): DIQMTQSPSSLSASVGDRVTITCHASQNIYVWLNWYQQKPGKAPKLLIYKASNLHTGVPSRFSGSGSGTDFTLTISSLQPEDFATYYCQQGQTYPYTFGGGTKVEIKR
Experimental: (§1) After panning, phage infected bacteria were plated out and colonies picked into 96 well blocks. Clonal phage was then amplified and separated from bacterial cells via centrifugation.
(§2) Clonal phage were harvested as crude supematants and screened via standard ELISAs. […] Prior to the addition of clonal phage, wells were incubated with blocking buffer and CD28 antigen or blocking buffer alone. Without washing or aspirating, clonal phage supematants were then added to the wells and incubated for a short time. Wells were then washed followed by detection of bound phage using a horse radish conjugated anti-M13 antibody. Clonal phage of interest were then sent for sequence analysis.

[2] = target: T1, Anti-CD28 Fab (SEQ ID NOs: 696, 697); experiment: phage ELISA; biotinylated anti-CD28 Fab on neutravidin plate, clonal phage supernatant, anti-M13 HRP detection;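 further: crude supernatants of single phage clones picked after panning were screened for binding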
[3] = target: T2, Anti-CD28 Fab (SEQ ID NOs: 696, 697); experiment: phage binding ELISA; biotinylated anti-CD28 Fab on neutravidin plate, bound phage detected with anti-M13-HRP
T2 construct: In the phage ELISA the Fab was biotinylated and captured on neutravidin coated plates
T2 sequence (VH, as listed by the source, chain 1 of 2): as the sequence (VH, as listed by the source, chain 1 of 2) above
T2 sequence (VL, as listed by the source, chain 2 of 2): as the sequence (VL, as listed by the source, chain 2 of 2) above
Experimental: as §1, §2

[4] = target: T2, Anti-CD28 Fab (SEQ ID NOs: 696, 697); experiment: phage binding ELISA on captured anti-CD28 Fab; competitor: CD28 antigen pre-incubated in the wells
Experimental: as §1, §2

[5] = target: T3, Anti-CD28 Fab (SEQ ID NOs: 696, 697); experiment: phage binding ELISA; biotinylated anti-CD28 Fab on neutravidin plate, clonal phage supernatant, anti-M13 HRP detection
T3 construct: Biotinylated and captured on neutravidin coated plates in the phage ELISA
T3 sequence (VH, as listed by the source, chain 1 of 2): as the sequence (VH, as listed by the source, chain 1 of 2) above
T3 sequence (VL, as listed by the source, chain 2 of 2): as the sequence (VL, as listed by the source, chain 2 of 2) above

[6] = target: T3, Anti-CD28 Fab (SEQ ID NOs: 696, 697); experiment: phage binding ELISA on anti-CD28 Fab plate pre-incubated with CD28 antigen as competitor; anti-M13 HRP detection
Experimental: as §1, §2

[7] = target: T4, Anti-CD28 Fab (SEQ ID NOs: 696, 697) (biotinylated (site not stated)); experiment: phage binding ELISA; biotinylated anti-CD28 Fab on neutravidin plates, clonal phage supernatant, anti-M13 HRP detection
T4 sequence (VH, as listed by the source, chain 1 of 2): as the sequence (VH, as listed by the source, chain 1 of 2) above
T4 sequence (VL, as listed by the source, chain 2 of 2): as the sequence (VL, as listed by the source, chain 2 of 2) above

[8] = target: T4, Anti-CD28 Fab (SEQ ID NOs: 696, 697); experiment: phage binding ELISA; Fab-coated wells pre-incubated with CD28 antigen as competitor, then clonal phage, anti-M13 HRP detection
Experimental: as §1, §2

Binder	Anti-CD28 Fab signal in the presence of CD28 (phage binding ELISA) [1]	Anti-CD28 Fab signal (phage binding ELISA) [2]	Anti-CD28 Fab signal (phage binding ELISA) [5]	Anti-CD28 Fab signal in the presence of CD28 (phage binding ELISA) [6]	other results
YCEGHAPQYIQKCL (Clonal phage of the Peptide-87 library) [Phage-670]	0.07	2.07			
YCEGHAPEYMMKCI (Clonal phage of the Peptide-87 library) [Phage-674]	0.06	2.06			
YCEGHAPEYMYKCL [Phage-685]					Anti-CD28 Fab signal (phage binding ELISA) [3]: 2.05; Anti-CD28 Fab signal in the presence of CD28 (phage binding ELISA) [4]: 0.07
B1			2.08	0.09	
B2			2.09	0.09	
B3			2.09	0.1	
YCDGHSAEYMSKCL (tested as crude phage supernatant) [Phage-654]					Anti-CD28 Fab signal (phage binding ELISA) [7]: 2.1; Anti-CD28 Fab signal in the presence of CD28 (phage binding ELISA) [8]: 0.06
YCAGHTQEYMSKCL (tested as crude phage supernatant) [Phage-651]					Anti-CD28 Fab signal (phage binding ELISA) [7]: 2.1; Anti-CD28 Fab signal in the presence of CD28 (phage binding ELISA) [8]: 0.05
YCQGHLPQYIAKCL (tested as crude phage supernatant) [Phage-655]					Anti-CD28 Fab signal (phage binding ELISA) [7]: 2.09; Anti-CD28 Fab signal in the presence of CD28 (phage binding ELISA) [8]: 0.08
YCDGHVGEYMQKCL [Phage-683]					Anti-CD28 Fab signal (phage binding ELISA) [3]: 2.05; Anti-CD28 Fab signal in the presence of CD28 (phage binding ELISA) [4]: 0.08
YCAGHIEEYMWKCL (Clonal phage of the Peptide-87 library) [Phage-680]	0.06	2.05			
YCEGHSAEYMNKCL (Clonal phage of the Peptide-87 library) [Phage-676]	0.07	2.06			
B4			2.07	0.12	
YCDGHLIEYMEKCL [Phage-688]					Anti-CD28 Fab signal (phage binding ELISA) [3]: 2.04; Anti-CD28 Fab signal in the presence of CD28 (phage binding ELISA) [4]: 0.06
YCDGHLPAYMAKCL (Clonal phage of the Peptide-87 library) [Phage-672]	0.12	2.06			
YCEGHSDEYMLKCL (Clonal phage of the Peptide-87 library) [Phage-673]	0.07	2.06			
B5			2.09	0.06	
YCEGHSPQYMQKCL (tested as crude phage supernatant) [Phage-652]					Anti-CD28 Fab signal (phage binding ELISA) [7]: 2.1; Anti-CD28 Fab signal in the presence of CD28 (phage binding ELISA) [8]: 0.06
YCDGHASEYMMKCL [Phage-687]					Anti-CD28 Fab signal (phage binding ELISA) [3]: 2.05; Anti-CD28 Fab signal in the presence of CD28 (phage binding ELISA) [4]: 0.06
YCDGHAPQYMGKCL (Clonal phage of the Peptide-87 library) [Phage-677]	0.08	2.06			

Binder	Anti-CD28 Fab signal in the presence of CD28 (phage binding ELISA) [1]	Anti-CD28 Fab signal (phage binding ELISA) [2]	Anti-CD28 Fab signal (phage binding ELISA) [5]	Anti-CD28 Fab signal in the presence of CD28 (phage binding ELISA) [6]	other results
B6			2.07	0.08	
B7			2.09	0.08	
B8			2.08	0.07	
B9			2.08	0.1	
YCDGHAPEYVMKCL (Clonal phage of the Peptide-87 library) [Phage-682]	0.1	2.05			
B10			2.09	0.07	
YCQGHMPEYMDKCL (Clonal phage of the Peptide-87 library) [Phage-681]	0.07	2.05			
YCDGHAIEYMQKCL (Clonal phage of the Peptide-87 library) [Phage-679]	0.07	2.05			
YCEGHADIYMQKCL (Clonal phage of the Peptide-87 library) [Phage-675]	0.07	2.06			
YCDGHLPEYQMKCL [Phage-686]					Anti-CD28 Fab signal (phage binding ELISA) [3]: 2.05; Anti-CD28 Fab signal in the presence of CD28 (phage binding ELISA) [4]: 0.08
YCAGHLPQYMEKCM (tested as crude phage supernatant) [Phage-656]					Anti-CD28 Fab signal (phage binding ELISA) [7]: 2.09; Anti-CD28 Fab signal in the presence of CD28 (phage binding ELISA) [8]: 0.08
YCEGHLPIYMDKCL (Clonal phage of the Peptide-87 library) [Phage-678]	0.08	2.06			
B11			2.08	0.09	
YCDGHVPQYMAKCL (tested as crude phage supernatant) [Phage-653]					Anti-CD28 Fab signal (phage binding ELISA) [7]: 2.1; Anti-CD28 Fab signal in the presence of CD28 (phage binding ELISA) [8]: 0.07
YCEGHAIQYMSKCL [Phage-689]					Anti-CD28 Fab signal (phage binding ELISA) [3]: 2.04; Anti-CD28 Fab signal in the presence of CD28 (phage binding ELISA) [4]: 0.06
B12			2.07	0.08	
YCDGHSAQYMHKCL [Phage-684]					Anti-CD28 Fab signal (phage binding ELISA) [3]: 2.05; Anti-CD28 Fab signal in the presence of CD28 (phage binding ELISA) [4]: 0.06
B13			2.08	0.08	
YCDGHELRYMAKCL (Clonal phage of the Peptide-87 library) [Phage-671]	0.07	2.07			
